Molecular target: HLA-A2 on T2 cells
Experiment: T2 HLA-stabilization assay, HLA-A2 level by flow cytometry
Settings: remark: other sources report otherwise

Binder: IISAVVGIL [GP2 peptide from HER2/neu]
- mean fluorescence intensity (mean fluorescence intensity): 682

Source: patent publication US20080260745A1
